Experimental data published in article PMC4493562, “Mechanistic studies of a novel C-S lyase in ergothioneine biosynthesis: the involvement of a sulfenic acid intermediate” (Scientific Reports, 2015).

Legend:
purified protein [1] = substrate: C[N+](C)(C)[C@@H](Cc1cnc(SC[C@H](N)C(=O)O)[nH]1)C(=O)[O-]; test: purified protein; format: biochemical, Mycolicibacterium smegmatis; details: 50 mM KPi pH 8.0, 1.0 mM DTT, 10 nM EgtE, 0.13 mM NADH, LDH
purified protein [2] = substrate: C[N+](C)(C)[C@@H](Cc1cnc([S+]([O-])C[C@H](N)C(=O)O)[nH]1)C(=O)[O-]; test: purified protein; format: biochemical, Mycolicibacterium smegmatis; details: 50 mM KPi pH 8.0, 1.0 mM DTT, 10 nM EgtE, 0.13 mM NADH, LDH

B1: EgtE (Mycolicibacterium smegmatis MC2 155) (protein)
chain: MMLAQQWRDARPKVAGLHLDSGACSRQSFAVIDATTAHARHEAEVGGYVAAEAATPALDAGRAAVASLIGFAASDVVYTSGSNHAIDLLLSSWPGKRTLACLPGEYGPNLSAMAANGFQVRALPVDDDGRVLVDEASHELSAHPVALVHLTALASHRGIAQPAAELVEACHNAGIPVVIDAAQALGHLDCNVGADAVYSSSRKWLAGPRGVGVLAVRPELAERLQPRIPPSDWPIPMSVLEKLELGEHNAAARVGFSVAVGEHLAAGPTAVRERLAEVGRLSRQVLAEVDGWRVVEPVDQPTAITTLESTDGADPASVRSWLIAERGIVTTACELARAPFEMRTPVLRISPHVDVTVDELEQFAAALREAP
notes: cloning details in supplement
B1 was tested, and the Km (purified protein [1]) was 1960 ± 250 µM, the kcat (purified protein [1]) was 7.93 ± 0.05 s⁻¹ and the Km (purified protein [2]) was 121.2 ± 6.6 µM. The kcat (purified protein [2]) was 25.27 ± 0.45 s⁻¹.
